Laboratory results reported in the supplement of paper PMC9112550, “Optimization of the antimicrobial peptide Bac7 by deep mutational scanning” (BMC Biology, 2022).

tested on: Escherichia coli TOP10; test: shrunken log2 fold change of peptide-encoding DNA abundance (4.5 h post-induction vs induction); higher = less antimicrobial activity (less host growth inhibition); conditions: time post-induction: 4.5 h; library: site-saturation at positions 5, 18, 19, 20
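Also: peptides expressed intracellularly from a pBAD plasmid library in pooled LB shake-flask culture, induced with 0.3% L-arabinose, DNA abundance read by NGS, three biological replicates, DESeq2 with apeglm shrinkage.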

| Sequence | shrunken log2 fold change |
| --- | --- |
| RRIRGRPPRLPRPRPRPNFIPRP | -0.00471 |
| RRIRGRPPRLPRPRPRPNGHPRP | 0.197 |
| RRIRGRPPRLPRPRPRPNHAPRP | -0.0738 |
| RRIRGRPPRLPRPRPRPNKQPRP | 0.326 |
| RRIRGRPPRLPRPRPRPNLFPRP | 0.129 |
| RRIRGRPPRLPRPRPRPNLHPRP | 0.303 |
| RRIRGRPPRLPRPRPRPNMTPRP | 1.63 |
| RRIRGRPPRLPRPRPRPNNWPRP | 0.121 |
| RRIRGRPPRLPRPRPRPNPCPRP | 0.102 |
| RRIRGRPPRLPRPRPRPNPQPRP | 0.0794 |
| RRIRGRPPRLPRPRPRPNQMPRP | 1.6 |
| RRIRGRPPRLPRPRPRPNTFPRP | 0.00502 |
| RRIRGRPPRLPRPRPRPNTWPRP | 0.237 |
| RRIRGRPPRLPRPRPRPNYKPRP | 0.211 |
| RRIRGRPPRLPRPRPRPNYSPRP | -0.371 |
| RRIRGRPPRLPRPRPRPPCLPRP | 0.503 |
| RRIRGRPPRLPRPRPRPPCSPRP | 0.238 |
| RRIRGRPPRLPRPRPRPPDGPRP | 1.99 |
| RRIRGRPPRLPRPRPRPPEMPRP | 1.62 |
| RRIRGRPPRLPRPRPRPPHAPRP | 1.37 |
| RRIRGRPPRLPRPRPRPPHFPRP | 0.67 |
| RRIRGRPPRLPRPRPRPPICPRP | 0.155 |
| RRIRGRPPRLPRPRPRPPKKPRP | 1.03 |
| RRIRGRPPRLPRPRPRPPKVPRP | 0.762 |
| RRIRGRPPRLPRPRPRPPLKPRP | 1.03 |

| Sequence | shrunken log2 fold change |
| --- | --- |
| RRIRGRPPRLPRPRPRPPMAPRP | 0.94 |
| RRIRGRPPRLPRPRPRPPMFPRP | 0.295 |
| RRIRGRPPRLPRPRPRPPMGPRP | 0.59 |
| RRIRGRPPRLPRPRPRPPMVPRP | 0.277 |
| RRIRGRPPRLPRPRPRPPRLPRP | 0.702 |
| RRIRGRPPRLPRPRPRPPSIPRP | 0.519 |
| RRIRGRPPRLPRPRPRPPSLPRP | 0.477 |
| RRIRGRPPRLPRPRPRPPTLPRP | 0.596 |
| RRIRGRPPRLPRPRPRPPTVPRP | 1.12 |
| RRIRGRPPRLPRPRPRPPVEPRP | 0.608 |
| RRIRGRPPRLPRPRPRPPWQPRP | 0.691 |
| RRIRGRPPRLPRPRPRPQAEPRP | 1.08 |
| RRIRGRPPRLPRPRPRPQAGPRP | 0.695 |
| RRIRGRPPRLPRPRPRPQAYPRP | -0.0978 |
| RRIRGRPPRLPRPRPRPQCFPRP | 0.352 |
| RRIRGRPPRLPRPRPRPQCIPRP | 0.438 |
| RRIRGRPPRLPRPRPRPQDDPRP | 0.114 |
| RRIRGRPPRLPRPRPRPQFTPRP | 0.104 |
| RRIRGRPPRLPRPRPRPQGPPRP | 0.224 |
| RRIRGRPPRLPRPRPRPQLHPRP | 0.231 |
| RRIRGRPPRLPRPRPRPQLNPRP | 0.368 |
| RRIRGRPPRLPRPRPRPQMFPRP | 0.612 |
| RRIRGRPPRLPRPRPRPQMPPRP | 0.225 |
| RRIRGRPPRLPRPRPRPQMWPRP | 0.891 |
| RRIRGRPPRLPRPRPRPQNRPRP | 0.0342 |

| Sequence | shrunken log2 fold change |
| --- | --- |
| RRIRGRPPRLPRPRPRPQNTPRP | 0.0999 |
| RRIRGRPPRLPRPRPRPQPTPRP | 1.02 |
| RRIRGRPPRLPRPRPRPQPYPRP | -0.0844 |
| RRIRGRPPRLPRPRPRPQQPPRP | 0.423 |
| RRIRGRPPRLPRPRPRPQSPPRP | 0.225 |
| RRIRGRPPRLPRPRPRPQTLPRP | 0.614 |
| RRIRGRPPRLPRPRPRPQVCPRP | 2.63e-05 |
| RRIRGRPPRLPRPRPRPRCNPRP | 0.551 |
| RRIRGRPPRLPRPRPRPRCWPRP | 1.19 |
| RRIRGRPPRLPRPRPRPRCYPRP | 0.555 |
| RRIRGRPPRLPRPRPRPRDIPRP | 0.373 |
| RRIRGRPPRLPRPRPRPREFPRP | 1.07 |
| RRIRGRPPRLPRPRPRPREGPRP | 1.42 |
| RRIRGRPPRLPRPRPRPRFMPRP | 0.172 |
| RRIRGRPPRLPRPRPRPRFPPRP | 0.412 |
| RRIRGRPPRLPRPRPRPRFQPRP | 0.158 |
| RRIRGRPPRLPRPRPRPRGQPRP | 0.803 |
| RRIRGRPPRLPRPRPRPRGWPRP | 1.68 |
| RRIRGRPPRLPRPRPRPRHKPRP | 0.149 |
| RRIRGRPPRLPRPRPRPRHNPRP | 0.0863 |
| RRIRGRPPRLPRPRPRPRHWPRP | 0.439 |
| RRIRGRPPRLPRPRPRPRHYPRP | 0.173 |
| RRIRGRPPRLPRPRPRPRIHPRP | 0.273 |
| RRIRGRPPRLPRPRPRPRIYPRP | 1.15 |
| RRIRGRPPRLPRPRPRPRKIPRP | 0.829 |
